IntAct's records for PubMed 22153076

B1: SH3 domain-binding protein 2 (Mus musculus), Q06649 (parent)
chain: MAAEEMQWPVPMKAIGAQNLLTMPGGVAKAGYLHKKGGTQLQLLKWPLRFVIIHKRCIYYFKSSTSASPQGAFSLSGYNRVMRAAEETTSNNVFPFKIIHISKKHRTWFFSASSEDERKSWMAFVRREIGHFHEKKELPLDTSDSSSDTDSFYGAVERPIDISLSSYPMDNEDYEHEDEDDSYLEPDSPGPMKLEDALTYPPAYPPPPVPVPRKPAFSDLPRAHSFTSKSPSPLLPPPPPKRGLPDTGSAPEDAKDALGLRRVEPGLRVPATPRRMSDPPMSNVPTVPNLRKHPCFRDSVNPGLEPWTPGHGTSSVSSSTTMAVATSRNCDKLKSFHLSSRGPPTSEPPPVPANKPKFLKIAEEPSPREAAKFAPVPPVAPRPPVQKMPMPEATVRPAVLPRPENTPLPHLQRSPPDGQSFRGFSFEKARQPSQADTGEEDSDEDYEKVPLPNSVFVNTTESCEVERLFKATDPRGEPQDGLYCIRNSSTKSGKVLVVWDESSNKVRNYRIFEKDSKFYLEGEVLFASVGSMVEHYHTHVLPSHQSLLLRHPYGYAGPR

Variants of: B1
Details: with rn146_human RNF146, Q9NTX7
Chain of rn146_human RNF146, Q9NTX7 (Q9NTX7 whole entry): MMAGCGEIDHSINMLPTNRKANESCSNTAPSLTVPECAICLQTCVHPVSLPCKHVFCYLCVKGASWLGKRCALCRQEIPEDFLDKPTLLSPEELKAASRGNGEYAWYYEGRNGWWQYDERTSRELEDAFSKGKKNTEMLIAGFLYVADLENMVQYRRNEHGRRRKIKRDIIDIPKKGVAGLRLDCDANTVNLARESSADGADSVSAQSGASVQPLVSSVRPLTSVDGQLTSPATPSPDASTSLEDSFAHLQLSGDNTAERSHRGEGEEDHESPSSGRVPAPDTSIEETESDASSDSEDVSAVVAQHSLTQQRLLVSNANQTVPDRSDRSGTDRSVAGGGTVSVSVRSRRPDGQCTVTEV

Variant | effect of a mutation on the interaction
R413Q | decreasing interaction

Variants of: B1
Details: with tnks1_human TNKS

Variant | effect of a mutation on the interaction
R413Q | disrupting interaction
